# From the nanobody polyreactivity screen of Harvey et al. (2022)
# Test: yeast display, Sf9 membrane polyspecificity reagent, FACS + sequencing; frameworks hold sequencing errors
# Method in brief: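 Nanobodies came from a synthetic yeast display library in Saccharomyces cerevisiae BJ5465, induced with galactose for 36–48 hours and stained for 1 hour at 4 °C with 10% biotinylated, detergent-solubilized Sf9 membrane reagent. Cells were enriched on streptavidin microbeads and then FACS-sorted, with low and high (top ~1%) gates set on anti-HA fluorescence for expression and streptavidin fluorescence for reagent binding. Each polyreactivity label reflects the gate a clone came from. Genes were amplified by colony PCR, sequenced by MiSeq 2 × 250 and filtered by CDR length.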
row,Sequence,polyreactivity (PSR sort gate)
1,QVQLVESGGGLVQAGGSLRLSCAASGSTFKRYTMGWYRQAPGKERELVARISWGGSTTYYAYSVKGRFTISRDNAKNTVYLQMNSLKPEDTAVYYCAASWSWYGNRGTYRYPPRYDYWGQGTQVTVSS,high polyreactivity
2,QVQLVESGGGLVQAGGSLRLSCAASGSTFKSYAMGWYRQAPGKERELVAAITHRGSTYYADSVKGRFTISRDNAKNTVYLQMNSLKPEDTAVYYCNVRRIGNGRRVDYWGQGTQVTVSS,high polyreactivity
3,QVQLVESGGGLVQAGGSLRLSCAASGSTFKTYVMGWYRQAPGKERELVAGISDSGGTTYYADSVKGRFTISRDNAKNTVYLQMNSLKPEDTAGYYCAAVLYRRYTRARLDYWGQGTQVTVSS,high polyreactivity
4,QVQLVESGGGLVQAGGSLRLSCAASGSTFKVNAMGWYRQAAGKEREFVAAITKNGGRTYYADSVKGRFTISRDYAKNTVYLQMNSLKPEDTAVYYCAARLYLPIIVVDLYGYDYWGQGTQVTVSS,low polyreactivity
5,QVQLVESGGGLVQAGGSLRLSCAASGSTFKVNAMGWYRQAPGKERELVAAISRGGSTYADSVKGRFTISRDNAKNTVYLQMNSLKPEDTAVYYCAAKSRYFQPDEYYYWGQVTQVTVSS,high polyreactivity
6,QVQLVESGGGLVQAGGSLRLSCAASGSTFKVNVMGCYRKAPVKERELVAAINQSVRGTYYADSVKGRFTISRDNAKNTVYLQMNSLKPEDTAVYYCAAKIIVLRYVLSQEQRRYNYWGQGTQVTVSS,low polyreactivity
7,QVQLVESGGGLVQAGGSLRLSCAASGSTFKVYAIGWYRQAPGKERELVAGISSGGNTNYADSVKGRFTISRDNAKNTVYLQMNSLKPEDTAVYYCNTDWYLPRYVLLGYFSGTEDYWGQGTQVTVSS,low polyreactivity
8,QVQLVESGGGLVQAGGSLRLSCAASGSTFKVYAMGWYRQAPGKERELVAAISRSGGRTYYADSVKGRFTISRDNEKNTVYLQMNSLKPEDTAVYYCNSDYTYSQGHYSGSYDYWGQGSQVTVSS,high polyreactivity
9,QVQLVESGGGLVQAGGSLRLSCAASGSTFKVYTMGWYRPAPGKERELVAAISGGGGSTYYADSVKGRFTISRDNAKNTVYLQMNSLNPEDTAVYYCAAQKRGPGYPYYYWGQGTQVTVSS,high polyreactivity
10,QVQLVESGGGLVQAGGSLRLSCAASGSTFKYNAMGWSRQAPGKERELVASISRSGGSTYYADSVKGRFTISRDNAKNTVYLQMNSQKPEDTAVYYCNVRRFVHYEYWGQGTQVTVSS,high polyreactivity
11,QVQLVESGGGLVQAGGSLRLSCAASGSTFKYYAMGWYRQAPAKERELVAAISARTGSTYYADSVKGRFTISRDNAKNTVYLQMNRLKPEDTAVYYCNKLTWRGEVDYWGQGTQVTVSS,high polyreactivity
12,QVQLVESGGGLVQAGGSLRLSCAASGSTFKYYAMGWYRQAPGKERELVAAISRRGGSTYYADSVKGRFTISRDNAKNTVYLQMNSLKPEDTAVYYCAARLPGYYGIGDYWGQGTQVTVSS,high polyreactivity
13,QVQLVESGGGLVQAGGSLRLSCAASGSTFKYYAMGWYRQATGKERELLAAITWRGGSTYYADSVKGRFTISRDNAKNSVYLLMKSLKPEDTAVYYCARQRYYGLRTLMEHWGQGTQVTVSS,high polyreactivity
14,QVQLVESGGGLVQAGGSLRLSCAASGSTFKYYTMGWYRQAPGKERELVAAITSGGSTNYADSVKGRFTISRDNAKNTVYLQMNSLNPEDTAVYYCAAGGRRFYVGVIYDYWGQGNQVTVSS,high polyreactivity
15,QVQLVESGGGLVQAGGSLRLSCAASGSTFLDNAMGWYRQAPGKERELVAAITQSGSSTYYADSVKGRFTISRDNAKNTVYLQMNSLKPEDTAVYYCAADVPNISFDYWGQGTQVTVSS,low polyreactivity
16,QVQLVESGGGLVQAGGSLRLSCAASGSTFLDYAMGWYRQAPGKERELVAAITSGGSTYYADSVKGRFTISRDNAKNTVYLQMNSLKPEDTAVYYCAAEQTQLYSFGWDEYWGQGTQVTVSS,low polyreactivity
17,QVQLVESGGGLVQAGGSLRLSCAASGSTFLDYDMGWYRQAPGKERELVATINSVGSTYYADSVKGRFTISRDNAKNTVYLQMNSLKPEDTAVYYCAARQEPGWYPDVWWEYDYWGQGTQVTVSS,low polyreactivity
18,QVQLVESGGGLVQAGGSLRLSCAASGSTFLFNVMGWYRQAPGKERELVAAITSGASTYYADSVKGRFTISRDNAKNTVYLQMNSLEPEDTAVYYCAVDYSFRYDYVQRYYYWGQGTQVTVSS,high polyreactivity
19,QVQLVESGGGLVQAGGSLRLSCAASGSTFLFYAMGWYRQAPGKEREFVDAISWSGGSTFYADSVKGRFTISRYNAKNTVYLQMNSLKPEDTAVYYCAARQDGYSGRKLYYLGQGTQVTVSS,low polyreactivity
20,QVQLVESGGGLVQAGGSLRLSCAASGSTFLGNDMGWYRQEPGKERELVASINSATSTTYADSVKGRFTISRDNAKNTVYLQMNSLKPEDTAVYYCAARYYRPLDYWGQGTQVTVSS,low polyreactivity

row,Sequence,polyreactivity (PSR sort gate)
1,QVQLVESGGGLVQAGGSLRLSCAASGSTFLINAMGWYRQAPGKERELVAAITASGGSTYADSVKGRFTISRDNAKNTVYLQMNSLKPEDTAVYYCAARYFPRHRYYYWGQGTQVTVSS,high polyreactivity
2,QVQLVESGGGLVQAGGSLRLSCAASGSTFLITALGWYRQAPGKEREFVADISSSDGSTYYADSVKGRFTISRDNAKNTVYLQMNSLKPEDTAVYYCAAAHVEGSYHKYYYWGQGTQVTVSS,high polyreactivity
3,QVQLVESGGGLVQAGGSLRLSCAASGSTFLNYAMGWYRQAPGKERELVAAISGRGGRTYYADSVKGRFTISRDNAKNTVYLQMNSLKPEDTAVYYCARRVRFPGGTFYYWGQGTQVTVSS,high polyreactivity
4,QVQLVESGGGLVQAGGSLRLSCAASGSTFLNYVMGWYRQAPGKERELVATINSGDSTNYADSVKGRFTISRDNAKNTVYLQMNSLKPEDTAVYYCAAEGNYWVDYWGQGTQVTVSS,low polyreactivity
5,QVQLVESGGGLVQAGGSLRLSCAASGSTFLNYVMGWYRQAPGKERELVATINSGDSTTYADSVKGRFTISRDNAKNTVYLQMNSLKPEDTAVYYCNADPYYYSTYWSVKYDYWGQGTQVTVSS,low polyreactivity
6,QVQLVESGGGLVQAGGSLRLSCAASGSTFLRYAMGWYIQAPGKERELVATISTSRGSTHYADSVKGRFTISRYNAKNTVYLQMNSLKPEDSAVYYCATRGGKWYYRTRQPYPYAMDYWGQGTQVTVSS,high polyreactivity
7,QVQLVESGGGLVQAGGSLRLSCAASGSTFLRYVMGWYRQAPGKERELVAAIDSGGSTHYADSVKGRFTISRDNAKNTVYLQMNSLKPEDTAVYYCNVDVSSDDWYPSTADFDYWGQGTQVTVSS,high polyreactivity
8,QVQLVESGGGLVQAGGSLRLSCAASGSTFLSNAMGWYRQAPGKERELVAGITSGTSTYYADSVKGRFTISRDNAKYTVYLQMNSLKPEDTAVYYCNADDAEVLYQYVEYDYWGQGTQVTVSS,low polyreactivity
9,QVQLVESGGGLVQAGGSLRLSCAASGSTFLSYAMGWYRQAPGKERELVAAISWSDVNTYYADSVKGRFTISRDNAKNTVYLQMNSLKPEDTAVYYCNARYYLYWGQGTQVTVSS,low polyreactivity
10,QVQLVESGGGLVQAGGSLRLSCAASGSTFLSYAMGWYRQAPGKERELVAVISWSGVSTYYADSVKGRFTISRDNAKNTVYLQMNSLNPEDTEVYYCNTGHHYIRTYGYWGQGTQVTVSS,low polyreactivity
11,QVQLVESGGGLVQAGGSLRLSCAASGSTFLTKAMGWNRQAPGKERELVAAISRSGGSTYYADSVKGRFTISRDNAKNTVYLQMNSLKPEDTAVYYGAAYSWRYQAWEFGYWGQGTQVTVSS,high polyreactivity
12,QVQLVESGGGLVQAGGSLRLSCAASGSTFLTYAMGWYRQAAGKERELVAGISYSTGSTYYADSVKGRFTISRDNAKNTVYLQMNSLKPEDTAVYYCAADEWDGLWYYYYFNYEDWGQGTQVTVSS,low polyreactivity
13,QVQLVESGGGLVQAGGSLRLSCAASGSTFLTYAMGWYRQAPGKEREFVAAISSTGTGRTYYADSVKGRFTISRDNAKNTVYLQMNSLKPEDTAVYYCAADLYGTYDYWGQGTQVTVSS,low polyreactivity
14,QVQLVESGGGLVQAGGSLRLSCAASGSTFLTYAMGWYRQAPGKERELLAASTRSTSTYADSVKGRFTISRDNAKNTVYFQMNSLKPEDTAVYYCNVDSYFRWWYDEWGQGTQVTVSS,high polyreactivity
15,QVQLVESGGGLVQAGGSLRLSCAASGSTFLWNAMGWYRQAPGKERELVAAISYSGGSTYYADSVKGRFTISRDNAKNTVYLQMNSLKPEDTAVYYCAKEWFYDPYPPGYDYWGQGTQVTVSS,low polyreactivity
16,QVQLVESGGGLVQAGGSLRLSCAASGSTFLYNAMGWYRQAPWKERELVAAISWSGGSTYYADSVKGRFTISRDNAKNTVYLQMNSLKPEDTAVYYCAAEQRRFTGYDYWGQGTQVTVSS,high polyreactivity
17,QVQLVESGGGLVQAGGSLRLSCAASGSTFLYNTMGWYRPAPGKERELVAAITSAGSTNYADSVKGRFTISRDNAKNTVYLQMNSLKPEDTAVYYCAAVGPTSGARYTYDYWGQGTQVTVSS,low polyreactivity
18,QVQLVESGGGLVQAGGSLRLSCAASGSTFLYNTMGWYRQAPGKERELVATITSRGDRTYYADSVKGRFTISRDNAKNTVYLQMNSLNPEDTGVYYCARDYGPYLSPENPAPMDYWGQGTQVTVSS,low polyreactivity
19,QVQLVESGGGLVQAGGSLRLSCAASGSTFLYYAMGWYREAPGKERELVAVISWSGVSTYYADSVKGRFTISRDNAKNTVYLQMKSLKPEDTAVYYCNTGNHYIRTYGYWGQGTQVTVSS,low polyreactivity
20,QVQLVESGGGLVQAGGSLRLSCAASGSTFLYYAMGWYRQAPGKEREFVAAISISGGSTYYADSVKGRFTISRDNAKNTVYLQMNSLKPEDTAVYYCAARKKEYKPGNYWGQGTQVTVSS,low polyreactivity
